Experimental findings from patent US11466286B2, “Methods and compositions for conferring and/or enhancing herbicide tolerance using protoporphyrinogen oxidase or variant thereof” (FarmHannong Co., Ltd., priority 2016, dated 2022) are described below.

To fix the notation:
B1: CyPPO13 F373I: CyPPO13 (SEQ ID NO: 4) PPO variant (protein)
chain: MNPATPEPLNAEVVVIGAGISGLTLAWRLQQGLSARGGSPQAVLLAEASSRVGGCISTQSKDGYRWEEGPNSFTPTPALLNLIAEVGLTDQLVLADAKLPRYIYWEGALLPVPLSPAAALGSRLLSVGGKLRALQGLLGFVPPPPGHEETVRQFFRRQLGSEVAERLVEPFTSGVYAGDPDQLSAVAAFPRVAGLEERYGSLFAGALQALRQRPQPSPAAIQPPPKRGQLGNLRQGLQQLPEALAQKLGDSLRLGWRALQLKRAGELYWVGFETPEGSRWVAARQVVLALPAYEAAALLQELNPPASQLLAEILYPPVAVVALAYPQEALPQPLRGFGHLIPRSQGLRTLGTIWASCLFPERAPQGYHSFLSILGGATDAALARRRGIPPIPALSPEERAQIAHAELSQVLLTRRAEPVYLGERLWPRAIPQYTLGHRQRIAQVQAHLASQTPGIWVCANYLDGVALGDCVRRAEALAQQLLSQV
modifications: Synthetic CyPPO13
B2: CyPPO13 F373C: CyPPO13 (SEQ ID NO: 4) PPO variant (protein)
chain: B1 chain with I373C
modifications: Synthetic CyPPO13
B3: CyPPO13 A177C: CyPPO13 (SEQ ID NO: 4) PPO variant (protein)
chain: B1 chain with A177C, I373F
modifications: Synthetic CyPPO13
B4: CyPPO13 A177L + F373I: CyPPO13 (SEQ ID NO: 4) PPO variant (protein)
chain: B1 chain with A177L
modifications: Synthetic CyPPO13
B5: CyPPO13 A177L + F373L: CyPPO13 (SEQ ID NO: 4) PPO variant (protein)
chain: B1 chain with A177L, I373L
modifications: Synthetic CyPPO13
B6: CyPPO13 F373M: CyPPO13 (SEQ ID NO: 4) PPO variant (protein)
chain: B1 chain with I373M
modifications: Synthetic CyPPO13
B7: CyPPO10 A167C: CyPPO10 (SEQ ID NO: 2) PPO variant (protein)
chain: MIEVDVAIVGGGLSGLSVAWRLQRSAPHYSGVLLEASDRLGGNITTQAAEGFVWELGPNSFAPTPALLQLIAEVGLHSELIRGDRHLPRYIYWRGELYPLEPTRPLALATSNLLSPWGKVRAALGALGFVPPYLGSGDESVDSFFRRHLGQEVAERLVAPFVSGVYCGDPQQLSAAAAFRRIAQLEKLGGSLIAGALRLRRQQPPQPKPPAQVQMRPGELGSFREGLAALPRAIAQQLKAPLHLQTPVEAITPEPKGGYLLRSGEQTWHARSVVLATPAYQTAELVAPFQPAIARALATIPYPTVACVVLAYPAGLGRSVRPGFGVLVPRGQGIRTLGTIWSSCLFPQRTPAGWQVFTSFIGGATDPDLASLREEAIVEQVQQDLTRLLDLPAAKARLLGMKVWRRAIPQYIVGYPQQWQQVTHALTQTPGLFLCSNYAEGVALGDRVEHGNRTAAAVAAYLAGGQS
modifications: Synthetic CyPPO10
B8: AtPPO1 WT: wild type Arabidopsis thaliana PPO1, PPO susceptible (SEQ ID NO: 5) (protein, listed as Arabidopsis thaliana)
chain: MELSLLRPTTQSLLPSFSKPNLRLNVYKPLRLRCSVAGGPTVGSSKIEGGGGTTITTDCVIVGGGISGLCIAQALATKHPDAAPNLIVTEAKDRVGGNIITREENGFLWEEGPNSFQPSDPMLTMVVDSGLKDDLVLGDPTAPRFVLWNGKLRPVPSKLTDLPFFDLMSIGGKIRAGFGALGIRPSPPGREESVEEFVRRNLGDEVFERLIEPFCSGVYAGDPSKLSMKAAFGKVWKLEQNGGSIIGGTFKAIQERKNAPKAERDPRLPKPQGQTVGSFRKGLRMLPEAISARLGSKVKLSWKLSGITKLESGGYNLTYETPDGLVSVQSKSVVMTVPSHVASGLLRPLSESAANALSKLYYPPVAAVSISYPKEAIRTECLIDGELKGFGQLHPRTQGVETLGTIYSSSLFPNRAPPGRILLLNYIGGSTNTGILSKSEGELVEAVDRDLRKMLIKPNSTDPLKLGVRVWPQAIPQFLVGHFDILDTAKSSLTSSGYEGLFLGGNYVAGVALGRCVEGAYETAIEVNNFMSRYAYK
modifications: PEPTIDE (1)..(537) Wild type AtPPO1
B9: AtPPO1 SLYM: mutated A. thaliana PPO1 with amino acid substitutions Y426M and S305L, PPO-inhibiting herbicide tolerant control (protein)
chain: B8 chain with S305L, Y426M
modifications: Synthetic Mutant type AtPPO1

Changes are numbered by the printed parent chain. Names and notes keep the numbering of the source.

In the first assay the test system is A. thaliana. Briefly: Seed germination of A. thaliana transformants on ½ MS media containing herbicides. Format: in vivo, Arabidopsis thaliana. The settings on record: T3 lines; 25 μM glufosinate, 25 μM glufosinate+70 nM tiafenacil, or 25 μM glufosinate+30 nM tiafenacil+40 nM saflufenacil; 7 days after sowing. The text has this:
T3 generation seeds of each transformant were sown in ½ MS media containing herbicides. Col-0 ecotype (wild type Arabidopsis) seeds were used as a control. The kinds of herbicides and concentration are as follows:
In FIGS. 31a to 31c, 10-3 refers to CyPPO10 wild type, 10FM-4-7 to the CyPPO10 F360M transgenic line, 10FL-1-9 to the CyPPO10 F360L transgenic line, 10FC-3-5 to the CyPPO10 F360C transgenic line, 10AC-5-4 to the CyPPO10 A167C transgenic line, 13-1 to CyPPO13 wild type, 13FM-3-1 to the CyPPO13 F373M transgenic line, 13FC-1-1 to the CyPPO13 F373C transgenic line, 13FI-2-1 to the CyPPO13 F373I transgenic line, 13AC-1-3 to the CyPPO13 A177C transgenic line, CyPPO13_ALFL to the CyPPO13 A177L+F373L transgenic line, and CyPPO13_ALFI to the CyPPO13 A177L+F373I transgenic line, respectively.
With B1, the “Seed germination in media containing herbicides” value (from here on “Seed germination”) is “germinated”.

Regarding B2, the “Seed germination” value is “germinated”.

With B3, the “Seed germination” value is “germinated”.

B4: the “Seed germination” value is reported as “germinated”.

As to B5, the “Seed germination” value is reported as “germinated”.

On to B6, for which the “Seed germination” value is recorded as “germinated”.

B7: the “Seed germination” value is listed as “germinated”.

A further assay has as its system CyPPO10. The assay can be described thus: PPO enzyme activity and IC50 by herbicides, CyPPO10 wild type and variants (MBP-PPO fusion). In kind it is biochemical, Thermosynechococcus elongatus BP-1. The settings on record: PPO enzyme activity of CyPPO10 protein, wild type = 100. The essentials: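 MBP-fused wild-type and variant CyPPO10 or CyPPO13 were expressed in E. coli BL21(DE3) and purified. After a 30 min oxygen-depleting preincubation with glucose oxidase-catalase in 50 mM Tris-Cl pH 8.0, 50 mM NaCl and 0.04% Tween 20, reactions used 50 μM substrate for 30 min at room temperature. Protoporphyrin IX fluorescence (ex 405/em 633 nm) was quantified against a standard curve.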
B7: the “Activity (%)” value worked out at 98%.

For the next assay, the system named is PPO-deficient BT3 E. coli (ΔPPO). Briefly: Tiafenacil tolerance of BT3 E. coli transformed with CyPPO10, CyPPO13 or AtPPO1 genes (pACBB vector). Format: cell-based. The following applies: tiafenacil 0 μM; PPO function complementation. Here is the method: After transforming PPO-deficient BT3 E. coli (ΔPPO) with CyPPO10 or CyPPO13, the transformed BT3 (ΔPPO) was cultured on LB agar plates containing PPO-inhibiting herbicide to examine the growth level of the transformed BT3 (ΔPPO). BT3 (ΔPPO) strain was obtained from Hokkaido University (Japan). The BT3 (ΔPPO) strain is deficient in hemG-type PPO and has kanamycin tolerance (refer to “Watanabe et al., Dual targeting of spinach protoporphyrinogen oxidase II to mitochondria and chloroplasts by alternative use of two in-frame […], JBC 2001 276(23):20474-20481; Che et al., Molecular Characterization and Subcellular Localization of Protoporphyrinogen Oxidase in Spinach Chloroplasts, Plant Physiol. 2000 September; 124(1):59-70”).
The cloned plasmid was added to 100 μl of BT3 competent cell (Hokkaido University; Japan) respectively, thereby transforming by a heat shock method. The transformed E. coli with each PPO gene was cultured in LB (Luria-Bertani) agar media comprising Chloramphenicol (Duchefa).
For seed culture of E. coli transformed with respective genes, each single colony of E. coli transformant as provided above was cultured in 3 ml of LB broth containing chloramphenicol overnight (220 rpm, 37° C.), and 50 to 100 μl were subcultured in a new 3 ml of LB broth, and they were cultured until absorbance (OD600) became 0.5 to 1, and they were diluted with LB broth to absorbance (OD600) of 0.5. The diluted solution was serially diluted again 5 times by a factor of one tenth with LB broth. […] The LB Agar media were incubated at 37° C., under light condition, and level of inhibiting growth was observed after 16 to 20 hours of incubation.
Plant physiol. 2003 133:736-747).
Consider B8, for which the “Growth of BT3 transformant on medium containing no herbicide” value was “recovered”.

Take B9: the “Growth of BT3 transformant on medium containing no herbicide” value is “recovered”.

In a further assay the test system is CyPPO13. Briefly: PPO enzyme activity and IC50 by herbicides, CyPPO13 wild type and variants (MBP-PPO fusion). Format: biochemical, Synechococcus sp. JA-3-3Ab. The settings on record: PPO enzyme activity of CyPPO13 protein, wild type = 100. On the procedure:
The enzyme activities of PPO protein and PPO protein variants were examined, and inhibition assay by PPO-inhibiting herbicides was conducted. It was confirmed that the PPO protein has low water-solubility, but in case of being expressed as a fusion protein with MBP (maltose binding protein) (MBP-PPO), the PPO protein is able to be stably expressed as water-soluble form. Therefore, the wild type and variant proteins which were expressed in the form of fusion protein with MBP were used in the present test (refer to FIG. 4).
In order to express wild type genes and mutant genes of CyPPO10 and CyPPO13 (refer to Example 1 and Example 4), those genes were introduced to pMAL-c2X vector (refer to FIG. 5) respectively, and then cloned to BL21 (DE3) E. coli (CodonPlus).
The enzyme activity of the purified wild type protein and variant proteins of CyPPO10 and CyPPO13 was measured by the following process.
At first, a substrate of PPO protein, Protoporphyrinogen IX was synthesized. This process was performed in the space where nitrogen gas is streamed. 6 mg of protoporphyrin IX was dissolved in 20% (v/v) EtOH 20 ml, and stirred under dark condition for 30 minutes. The obtained protoporphyrinogen IX solution was put into a 15 ml screw tube in an amount of 800 and flushed with nitrogen gas for 5 minutes. To this, 1 g of sodium amalgam was added and vigorous shaking was performed for 2 minutes. The lid was open to exhaust hydrogen gas in the tube. Thereafter, the lid was closed and incubated for 3 minutes. The […] was filtered using syringe and cellulose membrane filter. To 600 μl of the obtained […], 2M MOPS [3-(N-morpholino)propanesulfonic acid] was added in an amount of approximately 300 thereby adjusting pH to 8.0. To determine the enzyme activity of PPO protein, a reaction mixture was prepared with the following composition (based on 10 ml): 50 mM Tris-Cl (pH 8.0); 50 mM NaCl; 0.04% (v/v) Tween 20; 40 mM glucose (0.072 g); 5 units glucose oxidase (16.6 mg); and 10 units catalase (1 μl).
Two hundred microliters (200 μl) of reaction mixture containing a purified PPO protein were placed in 96 well plates, and preincubated for 30 min at room temperature to reduce the oxygen concentration by the reaction of glucose oxidase-catalase. The mineral oil was layered and then the reaction was initiated by adding the substrate, […], to a final concentration of 50 μM. The reaction proceeded at room temperature for 30 min and the fluorescence of protoporphyrin IX was measured using Microplate reader (Sense, Hidex) (excitation: 405 nm; emission: 633 nm). To calculate the PPO enzyme activity, protoporphyrinogen IX solution was kept open in the air to oxidize the solution (overnight). To this, 2.7N HCl was added, and the absorbance at 408 nm was measured. A standard curve was generated using standard protoporphyrin IX, and the PPO activity was measured by calibration of protoporphyrin IX using the standard curve of protoporphyrin IX.
The final concentration of each herbicide was as follows: […]
B1: the “Activity (%)” value worked out at 83%.

Turning to B2, the “Activity (%)” value is listed as 86%.

In the case of B3, the “Activity (%)” value came to 98%.

B4: the “Activity (%)” value stood at 66%.

For B5, the “Activity (%)” value is listed as 68%.

With B6, the “Activity (%)” value was 98%.
